For this test, the target named is BoNT/A receptor on mouse brain synaptosomes (mouse).

“active BoNT/A toxin (Metabiologics, Inc.), unlabeled (from UniProt P0DPI1 2-1296)” returned a percent inhibition at 2.0 µg of 78%.
